Measured values: patent US20210388087A1

B1: H183/L072 VH W33S (antibody, name in Kabat numbering, V domains shown)
VH: QVQLVESGGGLVQPGRSLRLSCAASGFTFSNASMHWVRQAPGKGLEWVAQIKDKGNAYAAYYAPSVKGRFTISRDDSKNSIYLQMNSLKTEDTAVYYCHYVHYASASTVLPAFGVDAWGQGTTVTVSS
VL: DIVMTQSPLSLPVTPGEPASISCQASQELVHMNRNTYLHWYQQKPGQAPRLLIYKVSNRFPGVPDRFSGSGSGTDFTLKISRVEAEDVGVYYCAQGTSVPFTFGQGTKLEIK
B2: H183/L072 VH M34S (antibody, name in Kabat numbering, V domains shown)
VH: QVQLVESGGGLVQPGRSLRLSCAASGFTFSNAWSHWVRQAPGKGLEWVAQIKDKGNAYAAYYAPSVKGRFTISRDDSKNSIYLQMNSLKTEDTAVYYCHYVHYASASTVLPAFGVDAWGQGTTVTVSS
VL: DIVMTQSPLSLPVTPGEPASISCQASQELVHMNRNTYLHWYQQKPGQAPRLLIYKVSNRFPGVPDRFSGSGSGTDFTLKISRVEAEDVGVYYCAQGTSVPFTFGQGTKLEIK
B3: H183/L072 VH H35S (antibody, name in Kabat numbering, V domains shown)
VH: QVQLVESGGGLVQPGRSLRLSCAASGFTFSNAWMSWVRQAPGKGLEWVAQIKDKGNAYAAYYAPSVKGRFTISRDDSKNSIYLQMNSLKTEDTAVYYCHYVHYASASTVLPAFGVDAWGQGTTVTVSS
VL: DIVMTQSPLSLPVTPGEPASISCQASQELVHMNRNTYLHWYQQKPGQAPRLLIYKVSNRFPGVPDRFSGSGSGTDFTLKISRVEAEDVGVYYCAQGTSVPFTFGQGTKLEIK
B4: H183/L072 VH K52S (antibody, name in Kabat numbering, V domains shown)
VH: QVQLVESGGGLVQPGRSLRLSCAASGFTFSNAWMHWVRQAPGKGLEWVAQISDKGNAYAAYYAPSVKGRFTISRDDSKNSIYLQMNSLKTEDTAVYYCHYVHYASASTVLPAFGVDAWGQGTTVTVSS
VL: DIVMTQSPLSLPVTPGEPASISCQASQELVHMNRNTYLHWYQQKPGQAPRLLIYKVSNRFPGVPDRFSGSGSGTDFTLKISRVEAEDVGVYYCAQGTSVPFTFGQGTKLEIK
B5: H183/L072 VH D52aS (antibody, name in Kabat numbering, V domains shown)
VH: QVQLVESGGGLVQPGRSLRLSCAASGFTFSNAWMHWVRQAPGKGLEWVAQIKSKGNAYAAYYAPSVKGRFTISRDDSKNSIYLQMNSLKTEDTAVYYCHYVHYASASTVLPAFGVDAWGQGTTVTVSS
VL: DIVMTQSPLSLPVTPGEPASISCQASQELVHMNRNTYLHWYQQKPGQAPRLLIYKVSNRFPGVPDRFSGSGSGTDFTLKISRVEAEDVGVYYCAQGTSVPFTFGQGTKLEIK
B6: H183/L072 VH N53S (antibody, name in Kabat numbering, V domains shown)
VH: QVQLVESGGGLVQPGRSLRLSCAASGFTFSNAWMHWVRQAPGKGLEWVAQIKDKGSAYAAYYAPSVKGRFTISRDDSKNSIYLQMNSLKTEDTAVYYCHYVHYASASTVLPAFGVDAWGQGTTVTVSS
VL: DIVMTQSPLSLPVTPGEPASISCQASQELVHMNRNTYLHWYQQKPGQAPRLLIYKVSNRFPGVPDRFSGSGSGTDFTLKISRVEAEDVGVYYCAQGTSVPFTFGQGTKLEIK
B7: H183/L072 VH Y55S (antibody, name in Kabat numbering, V domains shown)
VH: QVQLVESGGGLVQPGRSLRLSCAASGFTFSNAWMHWVRQAPGKGLEWVAQIKDKGNASAAYYAPSVKGRFTISRDDSKNSIYLQMNSLKTEDTAVYYCHYVHYASASTVLPAFGVDAWGQGTTVTVSS
VL: DIVMTQSPLSLPVTPGEPASISCQASQELVHMNRNTYLHWYQQKPGQAPRLLIYKVSNRFPGVPDRFSGSGSGTDFTLKISRVEAEDVGVYYCAQGTSVPFTFGQGTKLEIK
B8: H183/L072 VH W33T (antibody, name in Kabat numbering, V domains shown)
VH: QVQLVESGGGLVQPGRSLRLSCAASGFTFSNATMHWVRQAPGKGLEWVAQIKDKGNAYAAYYAPSVKGRFTISRDDSKNSIYLQMNSLKTEDTAVYYCHYVHYASASTVLPAFGVDAWGQGTTVTVSS
VL: DIVMTQSPLSLPVTPGEPASISCQASQELVHMNRNTYLHWYQQKPGQAPRLLIYKVSNRFPGVPDRFSGSGSGTDFTLKISRVEAEDVGVYYCAQGTSVPFTFGQGTKLEIK
B9: H183/L072 VH M34T (antibody, name in Kabat numbering, V domains shown)
VH: QVQLVESGGGLVQPGRSLRLSCAASGFTFSNAWTHWVRQAPGKGLEWVAQIKDKGNAYAAYYAPSVKGRFTISRDDSKNSIYLQMNSLKTEDTAVYYCHYVHYASASTVLPAFGVDAWGQGTTVTVSS
VL: DIVMTQSPLSLPVTPGEPASISCQASQELVHMNRNTYLHWYQQKPGQAPRLLIYKVSNRFPGVPDRFSGSGSGTDFTLKISRVEAEDVGVYYCAQGTSVPFTFGQGTKLEIK
B10: H183/L072 VH K52T (antibody, name in Kabat numbering, V domains shown)
VH: QVQLVESGGGLVQPGRSLRLSCAASGFTFSNAWMHWVRQAPGKGLEWVAQITDKGNAYAAYYAPSVKGRFTISRDDSKNSIYLQMNSLKTEDTAVYYCHYVHYASASTVLPAFGVDAWGQGTTVTVSS
VL: DIVMTQSPLSLPVTPGEPASISCQASQELVHMNRNTYLHWYQQKPGQAPRLLIYKVSNRFPGVPDRFSGSGSGTDFTLKISRVEAEDVGVYYCAQGTSVPFTFGQGTKLEIK
B11: H183/L072 VH D52aT (antibody, name in Kabat numbering, V domains shown)
VH: QVQLVESGGGLVQPGRSLRLSCAASGFTFSNAWMHWVRQAPGKGLEWVAQIKTKGNAYAAYYAPSVKGRFTISRDDSKNSIYLQMNSLKTEDTAVYYCHYVHYASASTVLPAFGVDAWGQGTTVTVSS
VL: DIVMTQSPLSLPVTPGEPASISCQASQELVHMNRNTYLHWYQQKPGQAPRLLIYKVSNRFPGVPDRFSGSGSGTDFTLKISRVEAEDVGVYYCAQGTSVPFTFGQGTKLEIK
B12: H183/L072 VH N53T (antibody, name in Kabat numbering, V domains shown)
VH: QVQLVESGGGLVQPGRSLRLSCAASGFTFSNAWMHWVRQAPGKGLEWVAQIKDKGTAYAAYYAPSVKGRFTISRDDSKNSIYLQMNSLKTEDTAVYYCHYVHYASASTVLPAFGVDAWGQGTTVTVSS
VL: DIVMTQSPLSLPVTPGEPASISCQASQELVHMNRNTYLHWYQQKPGQAPRLLIYKVSNRFPGVPDRFSGSGSGTDFTLKISRVEAEDVGVYYCAQGTSVPFTFGQGTKLEIK
B13: H183/L072 VH Y55T (antibody, name in Kabat numbering, V domains shown)
VH: QVQLVESGGGLVQPGRSLRLSCAASGFTFSNAWMHWVRQAPGKGLEWVAQIKDKGNATAAYYAPSVKGRFTISRDDSKNSIYLQMNSLKTEDTAVYYCHYVHYASASTVLPAFGVDAWGQGTTVTVSS
VL: DIVMTQSPLSLPVTPGEPASISCQASQELVHMNRNTYLHWYQQKPGQAPRLLIYKVSNRFPGVPDRFSGSGSGTDFTLKISRVEAEDVGVYYCAQGTSVPFTFGQGTKLEIK
B14: H183/L072 VH T28D (antibody, name in Kabat numbering, V domains shown)
VH: QVQLVESGGGLVQPGRSLRLSCAASGFDFSNAWMHWVRQAPGKGLEWVAQIKDKGNAYAAYYAPSVKGRFTISRDDSKNSIYLQMNSLKTEDTAVYYCHYVHYASASTVLPAFGVDAWGQGTTVTVSS
VL: DIVMTQSPLSLPVTPGEPASISCQASQELVHMNRNTYLHWYQQKPGQAPRLLIYKVSNRFPGVPDRFSGSGSGTDFTLKISRVEAEDVGVYYCAQGTSVPFTFGQGTKLEIK
B15: H183/L072 VH F29D (antibody, name in Kabat numbering, V domains shown)
VH: QVQLVESGGGLVQPGRSLRLSCAASGFTDSNAWMHWVRQAPGKGLEWVAQIKDKGNAYAAYYAPSVKGRFTISRDDSKNSIYLQMNSLKTEDTAVYYCHYVHYASASTVLPAFGVDAWGQGTTVTVSS
VL: DIVMTQSPLSLPVTPGEPASISCQASQELVHMNRNTYLHWYQQKPGQAPRLLIYKVSNRFPGVPDRFSGSGSGTDFTLKISRVEAEDVGVYYCAQGTSVPFTFGQGTKLEIK

molecular target: Human CD137 ECD (human); experiment: single mutant vs template dBBDu183H
Sequence (chain, as listed by the source limits assumed): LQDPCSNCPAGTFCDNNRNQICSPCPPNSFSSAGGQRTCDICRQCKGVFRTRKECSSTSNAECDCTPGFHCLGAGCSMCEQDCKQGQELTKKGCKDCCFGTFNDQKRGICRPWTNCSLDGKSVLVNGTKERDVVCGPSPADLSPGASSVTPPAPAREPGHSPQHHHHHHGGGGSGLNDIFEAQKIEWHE

Fold change of affinity, 0 fold:
B1, B2, B3, B4, B5, B6, B7, B8, B9, B10, B11, B12, B13, B14, B15
